Laboratory results: paper PMC12152161, “Molecular basis for assembly and activation of the Hook3 − KIF1C complex-dependent transport machinery” (EMBO Reports, 2025)
Values belong to the binder of their own block, whether it stands above or below them.

B4: His10 − MBP − KIF1C(714–809) (domain or fragment, UniProt O43896 714-809, looked up)
chain: PSSGKRRAPRRVYQIPQRRRLQGKDPRWATMADLKMQAVKEICYEVALADFRHGRAEIEALAALKMRELCRTYGKPDGPGDAWRAVARDVWDTVGE
notes: Tag kept, as named in the legends and methods of the native gel, ITC and SEC experiments; also called KIF1C_(H3BD); source: E. coli BL21(DE3) RIL, purified (Ni-NTA, size-exclusion chromatography); not shown: His10, N-terminal, kept; MBP, N-terminal, kept

Tests used:
[1] = target: T1, full-length KIF1C(WT)−Flag−EGFP (UniProt O43896 1-1103); assay: cell-based or functional assay
T1 sequence (looked up): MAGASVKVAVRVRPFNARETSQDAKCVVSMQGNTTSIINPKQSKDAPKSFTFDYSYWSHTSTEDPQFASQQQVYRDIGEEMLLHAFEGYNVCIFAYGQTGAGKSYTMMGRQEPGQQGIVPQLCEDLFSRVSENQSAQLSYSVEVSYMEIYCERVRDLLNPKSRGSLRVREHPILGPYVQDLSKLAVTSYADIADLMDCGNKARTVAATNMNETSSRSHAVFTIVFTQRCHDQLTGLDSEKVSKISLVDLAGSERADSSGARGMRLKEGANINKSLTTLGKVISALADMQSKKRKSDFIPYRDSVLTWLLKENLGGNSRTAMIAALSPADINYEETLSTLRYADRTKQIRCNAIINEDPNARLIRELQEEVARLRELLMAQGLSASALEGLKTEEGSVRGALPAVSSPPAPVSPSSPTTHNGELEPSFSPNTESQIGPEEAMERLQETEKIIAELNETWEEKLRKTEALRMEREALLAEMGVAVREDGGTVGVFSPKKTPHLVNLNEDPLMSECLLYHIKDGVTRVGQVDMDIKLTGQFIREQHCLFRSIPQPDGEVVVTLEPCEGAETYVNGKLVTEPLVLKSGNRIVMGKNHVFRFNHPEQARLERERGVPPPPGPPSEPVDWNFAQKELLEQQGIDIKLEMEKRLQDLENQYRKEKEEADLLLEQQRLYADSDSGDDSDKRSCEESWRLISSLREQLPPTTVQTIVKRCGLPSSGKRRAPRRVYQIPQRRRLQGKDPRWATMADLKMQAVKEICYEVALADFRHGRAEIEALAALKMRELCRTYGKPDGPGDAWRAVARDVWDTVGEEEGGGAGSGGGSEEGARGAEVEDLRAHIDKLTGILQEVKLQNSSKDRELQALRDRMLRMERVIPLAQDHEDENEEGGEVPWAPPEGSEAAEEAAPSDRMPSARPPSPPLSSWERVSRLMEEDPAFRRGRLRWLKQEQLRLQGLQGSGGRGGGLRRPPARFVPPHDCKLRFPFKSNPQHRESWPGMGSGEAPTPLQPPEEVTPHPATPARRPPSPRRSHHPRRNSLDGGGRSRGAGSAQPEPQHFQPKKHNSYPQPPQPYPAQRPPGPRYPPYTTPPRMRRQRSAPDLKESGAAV

[2] = target: B4; assay: ITC; 0.8 mM His10−MBP−Hook3(553–624) or His10−MBP−PTPN21(19–308) titrated into 0.04 mM His10−MBP−KIF1C(714–809); 25 °C; 50 mM Tris-HCl pH 7.5, 500 mM NaCl, 3 mM β-mercaptoethanol; MicroCal VP-ITC; conditions: both partners purified
[3] = target: the molecule itself; assay: crystal structure; Hook3(553–624) − KIF1C(714–809) complex, 30 mg/mL, sitting drop at 4 °C, 0.1 M sodium citrate/citric acid pH 5.5, 20% PEG 4000, 20% isopropanol; 3.0 Å
[4] = target: T2, His10 − MBP−Hook3(553–718) (UniProt Q86VS8 553-718); assay: native gel or EMSA; His10−MBP-tagged recombinant proteins alone or mixed (10 µM; molar ratio 1:1), incubated 16 h at 4 °C, 10% native gel, 120 V for 2 h on ice, Coomassie staining; conditions: both partners purified
T2 construct: source: E. coli BL21(DE3) RIL, purified (Ni-NTA, size-exclusion chromatography); not shown: His10, N-terminal, kept; MBP, N-terminal, kept
T2 sequence (looked up): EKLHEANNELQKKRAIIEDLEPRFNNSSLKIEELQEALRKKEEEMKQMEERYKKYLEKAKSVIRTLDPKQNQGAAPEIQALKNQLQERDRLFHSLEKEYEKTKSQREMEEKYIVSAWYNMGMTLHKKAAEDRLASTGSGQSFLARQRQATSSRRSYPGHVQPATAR

[5] = target: T3, His10 − MBP − PTPN21(19–308) (UniProt Q16825 19-308); assay: ITC; 0.8 mM His10−MBP−Hook3(553–624) or His10−MBP−PTPN21(19–308) titrated into 0.04 mM His10−MBP−KIF1C(714–809); 25 °C; 50 mM Tris-HCl pH 7.5, 500 mM NaCl, 3 mM β-mercaptoethanol; MicroCal VP-ITC; conditions: both partners purified
T3 construct: Tagged form used in native gels and ITC; also called PTPN21_(FERM); FERM domain of PTPN21; source: E. coli BL21(DE3) RIL, purified (Ni-NTA, size-exclusion chromatography); not shown: His10, N-terminal, kept; MBP, N-terminal, kept
T3 sequence (looked up): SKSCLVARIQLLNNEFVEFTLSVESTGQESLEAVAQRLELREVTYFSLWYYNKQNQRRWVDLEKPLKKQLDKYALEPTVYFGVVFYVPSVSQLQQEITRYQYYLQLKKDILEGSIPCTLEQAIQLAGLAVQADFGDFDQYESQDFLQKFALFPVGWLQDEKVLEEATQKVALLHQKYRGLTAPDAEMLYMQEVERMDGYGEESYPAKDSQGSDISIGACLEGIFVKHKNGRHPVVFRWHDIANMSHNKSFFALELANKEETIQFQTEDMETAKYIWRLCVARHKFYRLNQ

tail/cytoplasm ratio of Hook3−Myc−FuRed upon co-expression in RPE1 cells, 16 h post transfection [1]: 1.3 tail/cytoplasm ratio
tail/cytoplasm ratio of KIF1C−Flag−EGFP upon co-expression in RPE1 cells, 16 h post transfection [1]: 3.6 tail/cytoplasm ratio
B1: full-length Hook3(WT)−Myc−FuRed (natural protein, UniProt Q86VS8 1-718, looked up)
chain: MFSVESLERAELCESLLTWIQTFNVDAPCQTVEDLTNGVVMAQVLQKIDPAYFDENWLNRIKTEVGDNWRLKISNLKKILKGILDYNHEILGQQINDFTLPDVNLIGEHSDAAELGRMLQLILGCAVNCEQKQEYIQAIMMMEESVQHVVMTAIQELMSKESPVSAGNDAYVDLDRQLKKTTEELNEALSAKEEIAQRCHELDMQVAALQEEKSSLLAENQVLMERLNQSDSIEDPNSPAGRRHLQLQTQLEQLQEETFRLEAAKDDYRIRCEELEKEISELRQQNDELTTLADEAQSLKDEIDVLRHSSDKVSKLEGQVESYKKKLEDLGDLRRQVKLLEEKNTMYMQNTVSLEEELRKANAARSQLETYKRQVVELQNRLSEESKKADKLDFEYKRLKEKVDSLQKEKDRLRTERDSLKETIEELRCVQAQEGQLTTQGLMPLGSQESSDSLAAEIVTPEIREKLIRLQHENKMLKLNQEGSDNEKIALLQSLLDDANLRKNELETENRLVNQRLLEVQSQVEELQKSLQDQGSKAEDSVLLKKKLEEHLEKLHEANNELQKKRAIIEDLEPRFNNSSLKIEELQEALRKKEEEMKQMEERYKKYLEKAKSVIRTLDPKQNQGAAPEIQALKNQLQERDRLFHSLEKEYEKTKSQREMEEKYIVSAWYNMGMTLHKKAAEDRLASTGSGQSFLARQRQATSSRRSYPGHVQPATAR

Kd [2]: 1.58 µM
B2: His10 − MBP−Hook3(553–624) (domain or fragment, UniProt Q86VS8 553-624, looked up)
chain: EKLHEANNELQKKRAIIEDLEPRFNNSSLKIEELQEALRKKEEEMKQMEERYKKYLEKAKSVIRTLDPKQNQ
notes: Tagged form used in native gels and ITC; also called Hook3CC3; source: E. coli BL21(DE3) RIL, purified (Ni-NTA, size-exclusion chromatography); not shown: His10, N-terminal, kept; MBP, N-terminal, kept

B3: Hook3(553–624) (domain or fragment, UniProt Q86VS8 553-624, looked up)
chain: EKLHEANNELQKKRAIIEDLEPRFNNSSLKIEELQEALRKKEEEMKQMEERYKKYLEKAKSVIRTLDPKQNQ
notes: Untagged form used in the SEC replacement analysis and in the crystals; parallel coiled-coil homodimer in both crystal structures; A selenomethionine-substituted form was also made for the apo structure; also called Hook3CC3; source: E. coli BL21(DE3) RIL, purified (Ni-NTA, size-exclusion chromatography, tag removed with TEV protease); not shown: His10, N-terminal, cleaved; MBP, N-terminal, …
stoichiometry N [3]: 2

Binder: B4
binding result [4]: binds
Kd [5]: 5.15 µM
